Legend:
[1] = target: BSA (bovine) (UniProt P02769); experiment: enzyme-linked binding assay (ELISA format), non-conjugated HRPO on immobilized BSA
[2] = target: human laminin (human); experiment: enzyme-linked binding assay (ELISA format), non-conjugated HRPO on immobilized matrix protein
Procedure: (§1) After purification and labeling, it was subjected to an enzyme-linked binding assay with the Immobilized human matrix proteins, collagen type 1, fibronectin and laminin.
(§2) Peroxidase-labeled Cpa-maltose binding protein fusion and recombinant purified maltose-binding protein (for control of specific binding of the bacteria) were added to the wells for 2 h at room temperature. Non-conjugated peroxidase at a 1:300 dilution in PBS-T was used as a negative control. […] All assays were repeated on at least three independent occasions.

[3] = target: T1, human collagen type I (human, UniProt P02452 162-1218; P08123 80-1119, limits assumed); experiment: as above
T1 construct: Bought (Gibco BRL), immobilized on plates; also called type I collagen; collagen type 1
Procedure: as §1, §2

[4] = target: T2, human fibronectin (human, UniProt P02751 32-2477, limits assumed); experiment: as above
T2 construct: Bought, immobilized on plates
T2 sequence (P02751 32-2477 limits assumed): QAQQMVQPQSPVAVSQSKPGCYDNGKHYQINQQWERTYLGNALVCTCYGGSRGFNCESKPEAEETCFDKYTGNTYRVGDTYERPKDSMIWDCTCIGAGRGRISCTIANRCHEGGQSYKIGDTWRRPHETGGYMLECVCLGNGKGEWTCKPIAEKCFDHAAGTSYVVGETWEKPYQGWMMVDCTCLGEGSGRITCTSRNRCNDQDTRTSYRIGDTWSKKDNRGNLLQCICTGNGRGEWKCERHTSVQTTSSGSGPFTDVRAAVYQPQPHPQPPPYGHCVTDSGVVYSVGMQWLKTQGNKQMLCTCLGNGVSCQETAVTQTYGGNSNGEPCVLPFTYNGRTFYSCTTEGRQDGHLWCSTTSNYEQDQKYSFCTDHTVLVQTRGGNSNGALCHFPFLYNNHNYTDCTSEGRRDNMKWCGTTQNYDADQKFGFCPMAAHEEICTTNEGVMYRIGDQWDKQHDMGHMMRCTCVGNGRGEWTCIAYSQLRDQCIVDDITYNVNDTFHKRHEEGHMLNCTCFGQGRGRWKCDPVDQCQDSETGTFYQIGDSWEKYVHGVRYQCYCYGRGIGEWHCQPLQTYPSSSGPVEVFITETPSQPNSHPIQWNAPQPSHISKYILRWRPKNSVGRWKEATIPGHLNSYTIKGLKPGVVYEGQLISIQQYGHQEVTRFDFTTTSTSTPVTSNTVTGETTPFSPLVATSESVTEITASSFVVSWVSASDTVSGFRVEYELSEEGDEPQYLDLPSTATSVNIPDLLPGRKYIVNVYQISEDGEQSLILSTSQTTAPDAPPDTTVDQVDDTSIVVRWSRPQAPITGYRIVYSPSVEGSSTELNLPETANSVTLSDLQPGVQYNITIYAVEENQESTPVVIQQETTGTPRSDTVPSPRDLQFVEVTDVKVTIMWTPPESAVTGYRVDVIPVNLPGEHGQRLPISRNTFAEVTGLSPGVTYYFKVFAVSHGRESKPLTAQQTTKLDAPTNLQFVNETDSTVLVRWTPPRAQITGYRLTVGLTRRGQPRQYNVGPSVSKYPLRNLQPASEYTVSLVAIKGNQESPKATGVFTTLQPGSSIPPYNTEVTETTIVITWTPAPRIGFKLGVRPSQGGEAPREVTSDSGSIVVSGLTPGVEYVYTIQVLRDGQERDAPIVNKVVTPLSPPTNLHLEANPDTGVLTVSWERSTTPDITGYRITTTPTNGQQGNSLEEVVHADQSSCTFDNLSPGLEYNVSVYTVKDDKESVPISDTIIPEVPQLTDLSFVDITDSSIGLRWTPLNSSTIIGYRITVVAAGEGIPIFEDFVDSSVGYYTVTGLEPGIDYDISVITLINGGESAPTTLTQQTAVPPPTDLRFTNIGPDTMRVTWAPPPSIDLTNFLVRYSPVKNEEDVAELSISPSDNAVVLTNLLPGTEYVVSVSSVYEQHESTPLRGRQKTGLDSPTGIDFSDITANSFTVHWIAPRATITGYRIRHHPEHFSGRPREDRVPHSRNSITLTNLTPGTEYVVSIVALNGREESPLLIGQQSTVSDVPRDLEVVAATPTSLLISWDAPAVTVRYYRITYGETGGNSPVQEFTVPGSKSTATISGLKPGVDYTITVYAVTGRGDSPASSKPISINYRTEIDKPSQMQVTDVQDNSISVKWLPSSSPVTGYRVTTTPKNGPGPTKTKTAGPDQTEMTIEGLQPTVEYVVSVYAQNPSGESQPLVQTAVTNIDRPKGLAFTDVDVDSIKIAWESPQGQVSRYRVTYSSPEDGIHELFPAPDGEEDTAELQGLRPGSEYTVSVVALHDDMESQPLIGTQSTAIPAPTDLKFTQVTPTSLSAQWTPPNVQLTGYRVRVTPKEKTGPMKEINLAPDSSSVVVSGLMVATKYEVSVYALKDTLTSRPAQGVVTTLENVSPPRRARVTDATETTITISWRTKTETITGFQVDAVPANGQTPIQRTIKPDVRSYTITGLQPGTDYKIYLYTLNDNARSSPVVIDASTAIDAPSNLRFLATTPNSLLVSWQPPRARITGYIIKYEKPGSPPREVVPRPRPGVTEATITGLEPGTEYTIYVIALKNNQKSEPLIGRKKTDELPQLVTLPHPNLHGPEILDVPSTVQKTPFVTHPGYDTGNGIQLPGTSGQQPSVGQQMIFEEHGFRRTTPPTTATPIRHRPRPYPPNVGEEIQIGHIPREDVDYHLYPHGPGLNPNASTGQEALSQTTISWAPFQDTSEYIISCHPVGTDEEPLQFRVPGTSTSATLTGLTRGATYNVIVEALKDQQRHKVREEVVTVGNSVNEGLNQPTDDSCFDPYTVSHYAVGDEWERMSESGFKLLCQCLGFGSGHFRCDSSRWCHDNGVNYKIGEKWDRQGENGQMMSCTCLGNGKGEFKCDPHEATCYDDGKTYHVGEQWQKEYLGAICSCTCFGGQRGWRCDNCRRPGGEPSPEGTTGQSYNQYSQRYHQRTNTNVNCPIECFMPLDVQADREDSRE
Procedure: as §1, §2

BSA (bovine), sequence (P02769 25-607 limits assumed): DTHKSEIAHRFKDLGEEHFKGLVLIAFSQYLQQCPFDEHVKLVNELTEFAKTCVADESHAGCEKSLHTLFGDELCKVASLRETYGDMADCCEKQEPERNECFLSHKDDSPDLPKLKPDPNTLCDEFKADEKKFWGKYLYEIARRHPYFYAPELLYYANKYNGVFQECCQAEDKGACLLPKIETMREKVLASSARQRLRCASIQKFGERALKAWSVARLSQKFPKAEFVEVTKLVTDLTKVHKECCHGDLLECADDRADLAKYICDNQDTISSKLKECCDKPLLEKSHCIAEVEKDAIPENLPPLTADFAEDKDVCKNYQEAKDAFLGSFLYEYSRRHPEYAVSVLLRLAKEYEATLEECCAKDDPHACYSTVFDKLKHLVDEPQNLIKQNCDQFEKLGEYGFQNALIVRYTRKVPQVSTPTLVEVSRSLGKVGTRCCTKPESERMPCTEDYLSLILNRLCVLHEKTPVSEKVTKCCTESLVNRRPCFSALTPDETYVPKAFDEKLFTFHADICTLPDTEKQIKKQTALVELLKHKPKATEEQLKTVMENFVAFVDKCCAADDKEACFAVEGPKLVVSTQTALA
T1 sequence (P02452 162-1218 limits assumed, chain 1 of 2): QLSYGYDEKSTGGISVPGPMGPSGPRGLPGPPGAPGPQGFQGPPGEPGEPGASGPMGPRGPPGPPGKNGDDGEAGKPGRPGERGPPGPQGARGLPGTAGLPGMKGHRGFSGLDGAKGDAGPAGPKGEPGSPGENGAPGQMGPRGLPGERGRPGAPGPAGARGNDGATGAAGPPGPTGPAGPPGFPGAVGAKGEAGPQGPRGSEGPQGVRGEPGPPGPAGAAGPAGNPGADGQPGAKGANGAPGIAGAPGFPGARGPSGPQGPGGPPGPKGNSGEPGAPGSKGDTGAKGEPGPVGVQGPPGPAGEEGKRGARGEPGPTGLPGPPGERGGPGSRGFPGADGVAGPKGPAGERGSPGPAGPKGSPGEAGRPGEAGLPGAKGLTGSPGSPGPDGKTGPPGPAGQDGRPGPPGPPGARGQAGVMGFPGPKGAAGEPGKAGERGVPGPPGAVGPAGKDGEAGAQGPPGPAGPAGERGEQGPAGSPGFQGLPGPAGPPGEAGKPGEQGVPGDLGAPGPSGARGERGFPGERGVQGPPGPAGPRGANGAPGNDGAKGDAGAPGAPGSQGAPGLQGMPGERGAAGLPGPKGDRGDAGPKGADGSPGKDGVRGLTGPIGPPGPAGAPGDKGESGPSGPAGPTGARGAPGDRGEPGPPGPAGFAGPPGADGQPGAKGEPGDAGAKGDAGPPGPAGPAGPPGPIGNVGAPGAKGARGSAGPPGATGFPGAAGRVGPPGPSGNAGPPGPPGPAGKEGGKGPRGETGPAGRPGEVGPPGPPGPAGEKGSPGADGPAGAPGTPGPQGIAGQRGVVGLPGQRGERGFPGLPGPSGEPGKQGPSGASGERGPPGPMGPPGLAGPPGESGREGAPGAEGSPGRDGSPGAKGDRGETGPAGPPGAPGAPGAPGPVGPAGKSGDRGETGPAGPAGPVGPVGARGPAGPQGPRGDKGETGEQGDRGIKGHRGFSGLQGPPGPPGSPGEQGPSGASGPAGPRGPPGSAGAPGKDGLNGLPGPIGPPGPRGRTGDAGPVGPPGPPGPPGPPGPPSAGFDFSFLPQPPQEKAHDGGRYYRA
T1 sequence (P08123 80-1119 limits assumed, chain 2 of 2): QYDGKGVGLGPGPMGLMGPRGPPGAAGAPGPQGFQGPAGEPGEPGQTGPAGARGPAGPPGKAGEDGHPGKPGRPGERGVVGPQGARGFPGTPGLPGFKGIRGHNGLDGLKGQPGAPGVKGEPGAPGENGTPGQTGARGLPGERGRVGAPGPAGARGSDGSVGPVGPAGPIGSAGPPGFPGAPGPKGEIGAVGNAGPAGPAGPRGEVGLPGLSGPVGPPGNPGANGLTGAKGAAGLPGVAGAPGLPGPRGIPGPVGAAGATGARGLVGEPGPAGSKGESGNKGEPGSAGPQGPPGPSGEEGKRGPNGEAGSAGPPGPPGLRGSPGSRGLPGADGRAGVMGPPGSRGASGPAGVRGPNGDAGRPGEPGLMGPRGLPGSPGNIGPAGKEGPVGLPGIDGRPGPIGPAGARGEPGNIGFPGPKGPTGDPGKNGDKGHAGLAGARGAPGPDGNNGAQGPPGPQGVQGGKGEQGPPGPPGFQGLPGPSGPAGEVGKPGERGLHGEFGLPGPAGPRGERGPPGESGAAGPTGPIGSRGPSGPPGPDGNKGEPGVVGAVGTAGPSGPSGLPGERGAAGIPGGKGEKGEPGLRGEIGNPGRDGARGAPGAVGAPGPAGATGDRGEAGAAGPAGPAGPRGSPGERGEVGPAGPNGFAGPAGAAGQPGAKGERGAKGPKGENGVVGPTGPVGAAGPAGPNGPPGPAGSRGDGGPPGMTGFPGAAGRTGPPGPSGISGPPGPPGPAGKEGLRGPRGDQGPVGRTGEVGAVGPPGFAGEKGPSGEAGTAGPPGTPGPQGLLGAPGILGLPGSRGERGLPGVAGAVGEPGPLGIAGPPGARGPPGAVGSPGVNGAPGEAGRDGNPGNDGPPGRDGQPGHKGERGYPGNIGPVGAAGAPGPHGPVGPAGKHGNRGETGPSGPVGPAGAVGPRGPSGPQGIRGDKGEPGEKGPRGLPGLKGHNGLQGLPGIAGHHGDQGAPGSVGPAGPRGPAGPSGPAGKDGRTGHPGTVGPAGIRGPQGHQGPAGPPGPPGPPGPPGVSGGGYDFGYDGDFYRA

B1: non-conjugated horseradish peroxidase (enzyme, UniProt P00433 31-338, looked up)
chain: QLTPTFYDNSCPNVSNIVRDTIVNELRSDPRIAASILRLHFHDCFVNGCDASILLDNTTSFRTEKDAFGNANSARGFPVIDRMKAAVESACPRTVSCADLLTIAAQQSVTLAGGPSWRVPLGRRDSLQAFLDLANANLPAPFFTLPQLKDSFRNVGLNRSSDLVALSGGHTFGKNQCRFIMDRLYNFSNTGLPDPTLNTTYLQTLRGLCPLNGNLSALVDFDLRTPTIFDNKYYVNLEEQKGLIQSDQELFSSPNATDTIPLVRSFANSTQTFFNAFVEAMDRMGNITPLTGTQGQIRLNCRVVNSNS
notes: Negative control; also called HRPO; HRPO (negative control)
B1 was tested, and the OD492 [1] was 0.028 OD492, the OD492 [2] was 0.038 OD492 and the OD492 [3] was 0.049 OD492. It also gave an OD492 [4] of 0.038 OD492.
